This is an account of results in article doi:10.64898/2025.12.30.697132, “Explaining how mutations affect AlphaFold predictions” (bioRxiv, 2025).

This data set concerns the molecule itself. The experiment in a line: 19F NMR; 4-F-Phe labelled hXCL1(1-72) at 100 uM in 20 mM NaPO4, 50 mM NaCl, pH 6.5, 35 °C; populations of the dimer fold and the monomeric chemokine fold.

B1: Human XCL1(1-72) (domain or fragment, UniProt P47992 22-93, looked up)
chain: VGSEVSDKRTCVSLTTQRLPVSRIKTYTITEGSLRAVIFITKRGLKVCADPQATWVRDVVRSMDRKSNTRNN
modifications: 4-fluorophenylalanine, presumed at F39 (single fluorine atom verified by electrospray mass spectrometry)
notes: XCL1, human, residues 1-72, lacks the disordered C-terminal tail (residues 73-93); The protein exchanges between a monomeric chemokine fold and a dimeric beta-sheet fold; also called hXCL1(1-72); wildtype XCL1
Consider B1, for which the “percent of the protein in the dimer fold” value is 77%.
